Test results: article PMC9030869, “Interplay between Alba and Cren7 Regulates Chromatin Compaction in Sulfolobus solfataricus” (Biomolecules, 2022)

Target: T1, Sulfolobus solfataricus Alba1 (S. solfataricus, UniProt P60849 1-97)
T1 construct: Alba1 of Sulfolobus solfataricus; construct obtained from Dr. Malcolm White (University of St. Andrews); It was obtained from Dr. Malcolm White; source: E. coli BL21(DE3), purified (HiTrap SPHP cation exchange, size exclusion chromatography)
T1 sequence (looked up): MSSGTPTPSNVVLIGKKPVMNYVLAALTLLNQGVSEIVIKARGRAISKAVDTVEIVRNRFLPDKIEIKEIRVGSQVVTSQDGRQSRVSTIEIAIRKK
Test: SEC; equimolar amounts (~100 µM) of Alba1 and Alba2 mixed, then run on a TSKgel G3000SWxl column with 150 mM NaCl in Buffer A as mobile phase
Conditions: both partners purified

binding result: binds
B1: Sulfolobus solfataricus Alba2 (natural protein, S. solfataricus, UniProt Q97ZF4 1-89, looked up)
chain: MTEKLNEIVVRKTKNVEDHVLDVIVLFNQGIDEVILKGTGREISKAVDVYNSLKDRLGDGVQLVNVQTGSEVRDRRRISYILLRLKRVY
notes: Alba2 of Sulfolobus solfataricus, homologue of Alba1; construct obtained from Dr. Malcolm White (University of St. Andrews); It was obtained from Dr. Malcolm White; source: E. coli BL21(DE3), purified (HiTrap SPHP cation exchange, size exclusion chromatography)
